From US20130336893A1 (Sanofi, published 2013)
*1 amine or outer side, *2 acyl side, *3 side chain or, on linkers, in order; H or OH if unused. Where no end group is shown, it is not given here. Side-chain parts run from the residue outwards. [ ]: non-standard residue; d: D form. The star is where a group is joined. γGlu = O=C(O)[C@H](CCC(=O)[*:2])N[*:1]; Stearoyl = CCCCCCCCCCCCCCCCCC(=O)*; Palmitoyl = CCCCCCCCCCCCCCCC(=O)*; Orn = NCCC[C@H](N)C(=O)O; Dab = NCC[C@H](N)C(=O)O; Dap = NC[C@H](N)C(=O)O; Aib = CC(C)(N)C(=O)O

B1: SEQ ID NO: (90) (peptide)
peptide: H[dS]QGTFTSDLSKQMESRRAQDFIEWLKSGGPSSGAPPPS[Dap]([γGlu-Palmitoyl])-NH2
modifications: N-terminus assumed
SMILES: CCCCCCCCCCCCCCCC(=O)N[C@@H](CCC(=O)NC[C@H](NC(=O)[C@H](CO)NC(=O)[C@@H]1CCCN1C(=O)[C@@H]1CCCN1C(=O)[C@@H]1CCCN1C(=O)[C@H](C)NC(=O)CNC(=O)[C@H](CO)NC(=O)[C@H](CO)NC(=O)[C@@H]1CCCN1C(=O)CNC(=O)CNC(=O)[C@H](CO)NC(=O)[C@H](CCCCN)NC(=O)[C@H](CC(C)C)NC(=O)[C@H](Cc1c[nH]c2ccccc12)NC(=O)[C@H](CCC(=O)O)NC(=O)[C@@H](NC(=O)[C@H](Cc1ccccc1)NC(=O)[C@H](CC(=O)O)NC(=O)[C@H](CCC(N)=O)NC(=O)[C@H](C)NC(=O)[C@H](CCCNC(=N)N)NC(=O)[C@H](CCCNC(=N)N)NC(=O)[C@H](CO)NC(=O)[C@H](CCC(=O)O)NC(=O)[C@H](CCSC)NC(=O)[C@H](CCC(N)=O)NC(=O)[C@H](CCCCN)NC(=O)[C@H](CO)NC(=O)[C@H](CC(C)C)NC(=O)[C@H](CC(=O)O)NC(=O)[C@H](CO)NC(=O)[C@@H](NC(=O)[C@H](Cc1ccccc1)NC(=O)[C@@H](NC(=O)CNC(=O)[C@H](CCC(N)=O)NC(=O)[C@@H](CO)NC(=O)[C@@H](N)Cc1c[nH]cn1)[C@@H](C)O)[C@@H](C)O)[C@@H](C)CC)C(N)=O)C(=O)O
B2: SEQ ID NO: (85) (peptide)
peptide: H[dS]QGTFTSDLSKQMESRRAQDFIEWLKSGGPSSGAPPPSK(Stearoyl)-NH2
B3: SEQ ID NO: (88) (peptide)
peptide: H[dS]QGTFTSDLSKQMESRRAQDFIEWLKSGGPSSGAPPPS[Orn]([γGlu-Palmitoyl])-NH2
modifications: N-terminus assumed
SMILES: CCCCCCCCCCCCCCCC(=O)N[C@@H](CCC(=O)NCCC[C@H](NC(=O)[C@H](CO)NC(=O)[C@@H]1CCCN1C(=O)[C@@H]1CCCN1C(=O)[C@@H]1CCCN1C(=O)[C@H](C)NC(=O)CNC(=O)[C@H](CO)NC(=O)[C@H](CO)NC(=O)[C@@H]1CCCN1C(=O)CNC(=O)CNC(=O)[C@H](CO)NC(=O)[C@H](CCCCN)NC(=O)[C@H](CC(C)C)NC(=O)[C@H](Cc1c[nH]c2ccccc12)NC(=O)[C@H](CCC(=O)O)NC(=O)[C@@H](NC(=O)[C@H](Cc1ccccc1)NC(=O)[C@H](CC(=O)O)NC(=O)[C@H](CCC(N)=O)NC(=O)[C@H](C)NC(=O)[C@H](CCCNC(=N)N)NC(=O)[C@H](CCCNC(=N)N)NC(=O)[C@H](CO)NC(=O)[C@H](CCC(=O)O)NC(=O)[C@H](CCSC)NC(=O)[C@H](CCC(N)=O)NC(=O)[C@H](CCCCN)NC(=O)[C@H](CO)NC(=O)[C@H](CC(C)C)NC(=O)[C@H](CC(=O)O)NC(=O)[C@H](CO)NC(=O)[C@@H](NC(=O)[C@H](Cc1ccccc1)NC(=O)[C@@H](NC(=O)CNC(=O)[C@H](CCC(N)=O)NC(=O)[C@@H](CO)NC(=O)[C@@H](N)Cc1c[nH]cn1)[C@@H](C)O)[C@@H](C)O)[C@@H](C)CC)C(N)=O)C(=O)O
B4: SEQ ID NO: (83) (peptide)
peptide: Ac-H[dS]QGTFTSDLSKQMESRRAQDFIEWLKSGGPSSGAPPPSK([γGlu-Palmitoyl])-NH2
B5: SEQ ID NO: (79) (peptide)
peptide: H[dS]QGTFTSDLSKQMESRAAQLFIEWLKAGGPSSGAPPPSK([γGlu-Palmitoyl])-NH2
modifications: N-terminus assumed
SMILES: CCCCCCCCCCCCCCCC(=O)N[C@@H](CCC(=O)NCCCC[C@H](NC(=O)[C@H](CO)NC(=O)[C@@H]1CCCN1C(=O)[C@@H]1CCCN1C(=O)[C@@H]1CCCN1C(=O)[C@H](C)NC(=O)CNC(=O)[C@H](CO)NC(=O)[C@H](CO)NC(=O)[C@@H]1CCCN1C(=O)CNC(=O)CNC(=O)[C@H](C)NC(=O)[C@H](CCCCN)NC(=O)[C@H](CC(C)C)NC(=O)[C@H](Cc1c[nH]c2ccccc12)NC(=O)[C@H](CCC(=O)O)NC(=O)[C@@H](NC(=O)[C@H](Cc1ccccc1)NC(=O)[C@H](CC(C)C)NC(=O)[C@H](CCC(N)=O)NC(=O)[C@H](C)NC(=O)[C@H](C)NC(=O)[C@H](CCCNC(=N)N)NC(=O)[C@H](CO)NC(=O)[C@H](CCC(=O)O)NC(=O)[C@H](CCSC)NC(=O)[C@H](CCC(N)=O)NC(=O)[C@H](CCCCN)NC(=O)[C@H](CO)NC(=O)[C@H](CC(C)C)NC(=O)[C@H](CC(=O)O)NC(=O)[C@H](CO)NC(=O)[C@@H](NC(=O)[C@H](Cc1ccccc1)NC(=O)[C@@H](NC(=O)CNC(=O)[C@H](CCC(N)=O)NC(=O)[C@@H](CO)NC(=O)[C@@H](N)Cc1c[nH]cn1)[C@@H](C)O)[C@@H](C)O)[C@@H](C)CC)C(N)=O)C(=O)O
B6: SEQ ID NO: (82) (peptide)
peptide: GH[dS]QGTFTSDLSKQMESRRAQDFIEWLKSGGPSSGAPPPSK([γGlu-Palmitoyl])-NH2
B7: SEQ ID NO: (89) (peptide)
peptide: H[dS]QGTFTSDLSKQMESRRAQDFIEWLKSGGPSSGAPPPS[Dab]([γGlu-Palmitoyl])-NH2
B8: SEQ ID NO: (80) (peptide)
peptide: H[dS]QGTFTSDLSKQMESRRAQDFIEWLK[Aib]GGPSSGAPPPK([γGlu-Palmitoyl])-NH2
modifications: N-terminus assumed
SMILES: CCCCCCCCCCCCCCCC(=O)N[C@@H](CCC(=O)NCCCC[C@H](NC(=O)[C@@H]1CCCN1C(=O)[C@@H]1CCCN1C(=O)[C@@H]1CCCN1C(=O)[C@H](C)NC(=O)CNC(=O)[C@H](CO)NC(=O)[C@H](CO)NC(=O)[C@@H]1CCCN1C(=O)CNC(=O)CNC(=O)C(C)(C)NC(=O)[C@H](CCCCN)NC(=O)[C@H](CC(C)C)NC(=O)[C@H](Cc1c[nH]c2ccccc12)NC(=O)[C@H](CCC(=O)O)NC(=O)[C@@H](NC(=O)[C@H](Cc1ccccc1)NC(=O)[C@H](CC(=O)O)NC(=O)[C@H](CCC(N)=O)NC(=O)[C@H](C)NC(=O)[C@H](CCCNC(=N)N)NC(=O)[C@H](CCCNC(=N)N)NC(=O)[C@H](CO)NC(=O)[C@H](CCC(=O)O)NC(=O)[C@H](CCSC)NC(=O)[C@H](CCC(N)=O)NC(=O)[C@H](CCCCN)NC(=O)[C@H](CO)NC(=O)[C@H](CC(C)C)NC(=O)[C@H](CC(=O)O)NC(=O)[C@H](CO)NC(=O)[C@@H](NC(=O)[C@H](Cc1ccccc1)NC(=O)[C@@H](NC(=O)CNC(=O)[C@H](CCC(N)=O)NC(=O)[C@@H](CO)NC(=O)[C@@H](N)Cc1c[nH]cn1)[C@@H](C)O)[C@@H](C)O)[C@@H](C)CC)C(N)=O)C(=O)O
B9: SEQ ID NO: (5) (peptide)
peptide: HSQGTFTSDLSKQMDERRAQDFIEWLKNGGPSSGAPPPS-NH2
B10: SEQ ID NO: (86) (peptide)
peptide: H[dS]QGTFTSDLSKQMESRRAQDFIEWLKSGGPSSGAPPPSK([γGlu-tocopheryl‑succinyl])-NH2
B11: SEQ ID NO: (15) (peptide)
peptide: HSQGTFTSDLSKQMEERRAQDFIEWLKNGGPSSGAPPPS-NH2
B12: SEQ ID NO: (84) (peptide)
peptide: H[dS]QGTFTSDLSKQMESRRAQDFIEWLKSGGPSSGAPPPSK([γGlu-Stearoyl])-NH2
B13: SEQ ID NO: (81) (peptide)
peptide: H[dS]QGTFTSDLSKQMESRRAQDFIEWLK[Aib]GGPSSGAPPPK(Palmitoyl)-NH2
B14: SEQ ID NO: (78) (peptide)
peptide: H[dS]QGTFTSDLSKQMESRRAQDFIEWLKSGGPSSGAPPPSK([γGlu-Palmitoyl])-NH2
modifications: N-terminus assumed
SMILES: CCCCCCCCCCCCCCCC(=O)N[C@@H](CCC(=O)NCCCC[C@H](NC(=O)[C@H](CO)NC(=O)[C@@H]1CCCN1C(=O)[C@@H]1CCCN1C(=O)[C@@H]1CCCN1C(=O)[C@H](C)NC(=O)CNC(=O)[C@H](CO)NC(=O)[C@H](CO)NC(=O)[C@@H]1CCCN1C(=O)CNC(=O)CNC(=O)[C@H](CO)NC(=O)[C@H](CCCCN)NC(=O)[C@H](CC(C)C)NC(=O)[C@H](Cc1c[nH]c2ccccc12)NC(=O)[C@H](CCC(=O)O)NC(=O)[C@@H](NC(=O)[C@H](Cc1ccccc1)NC(=O)[C@H](CC(=O)O)NC(=O)[C@H](CCC(N)=O)NC(=O)[C@H](C)NC(=O)[C@H](CCCNC(=N)N)NC(=O)[C@H](CCCNC(=N)N)NC(=O)[C@H](CO)NC(=O)[C@H](CCC(=O)O)NC(=O)[C@H](CCSC)NC(=O)[C@H](CCC(N)=O)NC(=O)[C@H](CCCCN)NC(=O)[C@H](CO)NC(=O)[C@H](CC(C)C)NC(=O)[C@H](CC(=O)O)NC(=O)[C@H](CO)NC(=O)[C@@H](NC(=O)[C@H](Cc1ccccc1)NC(=O)[C@@H](NC(=O)CNC(=O)[C@H](CCC(N)=O)NC(=O)[C@@H](CO)NC(=O)[C@@H](N)Cc1c[nH]cn1)[C@@H](C)O)[C@@H](C)O)[C@@H](C)CC)C(N)=O)C(=O)O

What was measured:
[1] = molecular target: human GLP-1 receptor (human, UniProt P43220 24-463); assay: cell-based or functional assay
[2] = molecular target: human glucagon receptor (human, UniProt P47871 26-477); assay: cell-based or functional assay
Chain of human glucagon receptor (P47871 26-477): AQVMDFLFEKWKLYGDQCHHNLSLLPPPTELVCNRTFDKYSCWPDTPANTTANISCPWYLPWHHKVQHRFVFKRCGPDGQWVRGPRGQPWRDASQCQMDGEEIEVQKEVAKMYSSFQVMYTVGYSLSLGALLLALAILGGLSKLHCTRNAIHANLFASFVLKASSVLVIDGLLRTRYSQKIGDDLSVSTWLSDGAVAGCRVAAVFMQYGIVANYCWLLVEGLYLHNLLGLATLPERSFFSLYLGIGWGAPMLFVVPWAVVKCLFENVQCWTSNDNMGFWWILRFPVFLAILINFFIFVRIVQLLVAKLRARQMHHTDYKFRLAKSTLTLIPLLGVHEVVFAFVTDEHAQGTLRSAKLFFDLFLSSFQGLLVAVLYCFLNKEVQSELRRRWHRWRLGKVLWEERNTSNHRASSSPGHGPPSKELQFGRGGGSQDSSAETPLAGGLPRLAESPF

Binder	EC50 hGLP-1R (cAMP formation) [1] [nM]	EC50 hGlucagonR (cAMP formation) [2] [nM]
B1	0.0049	0.0336
B2	0.0064	0.009
B3	0.0051	0.0182
B4	0.369	0.375
B5	0.0037	0.195
B6	2.59	5.52
B7	0.0059	0.0198
B8	0.0108	0.0381
B9	0.0166	0.067
B10	0.0281	0.0218
B11	0.0352	0.538
B12	0.0039	0.0138
B13	0.0197	0.0293
B14	0.0042	0.0181
